Results published in patent publication US20240026407A1, “MODIFICATION OF SAPONINS” (GLAXOSMITHKLINE BIOLOGICALS SA, priority 2020, published 2024).

B1: 1001 (protein, listed as Brachybacterium faecium)
chain: MNSAPASPADTPSAGAGRPAAQLQDALAITAVEDTGRLPQLVHTVTLAQPRDQVRRAELLATAHGLYEMRIGGAPATESVLNPGWTTYERRLQVQRLDVTAQVRQRPEGLAAADADRLDLEATLADGWWRGDLGFDGGVRYGDDLALLAAVEIEFADGTRQRVVTDESWRSRPSAIMSANIYHGQHEDRRLGLGPETPVRVVEIDRSTLVEQVSPPVLRHESRRPERIWTSPAGRTLVDFGQNLVGWLRFTVTGPEGTEIVLRHAEVLEDGELGTRPLRAARATDRLVLAGDPAGETFEPTFTFHGFRYAEISGWPGELAAEDLEAVVVHSALRRTGWFECSHAGVNQLISNSLWSQRGNFLSVPTDCPQRDERLGWTGDIAAYAATAAFQHDVGDFLHGWLLDLGQEARMNPHGIVPFVVPDLLKPGLGAGDPAAADEGWGTPTAIWGDAAVWVAEALWTAYGDLDRLRAHYPAMVRHLDSVDRALSPSGLWDTGFQFGDWLDPDAPPEAADRAKADKGVVATACLVRSARFAAQAARLLGEEVDARRWQGLAERTLAAFTTAYVHENGTITSDCATVYALAIAFDLLDAGTRPRAAARLAEVVAEAGHRVSTGFAGTPFVTWALSETGHVEEAYRLLLEEGCPSWLYPVSMGATTIWERWDSMLPDGSINPGEMTSFNHYALGAVADWVYQVVLGVRPAAPGYRRIRIQPVPGPGIEWAEGAHDSAAGRIEVSWEHSADGLRGTATIPEGAEAEIVLPDGRARTVGPGRHSF
B2: 1061 (protein, listed as Rhizobium leguminosarum)
chain: MNFQPAAISGNLVSRTWSGDMIAPLSDGGQGTAASFVSKTFEHDGTKLPAELFISALGLYRCFINGVRVGSDLLTPGWTNYDDRLAYQRYDVSNLLKPGLNRIEIWLADGWYRSPLMWGAQAIPNCWGDRIGAIADLIGADGTVLSTDTTWRSGVLPILRSGIYFGEIYDARQENCVETHGTEKLAFDKALLVAHETAAVRELRPLTAVENWTDDEGRTIYDFGQNAGGYIRYTVRGTAGAEVRVEHSEVLGPDRHFDNRNYRTAAAHTVYTLRGNGDETYAPHFTFHGFRYARVTIKGDAKILAIASIPISSVPEPAGGFTSGNALVNRLVENTIWSQRANFVEVPTDCPQRDERLGWTGDAQVFAATACWLSDSQSFLRKYLRDVMADQREDGAVSHFSPDPTRLHPANFPGYAGSTGWGDAIVVIPWVLYTHYGDRAVLSECLESMVRWVDFVWSISDGPLVRPPSRWGDRGFTFGDWLQPVGDNRKPRPTIADDCAATLYHFISTDLLARIAATLGEHALEEKMKQRANEIRRAFTNEFITPAGRLAHNDQTSYALAFLHDLIPAEHRQAAQQHFRQVIIDADYKIGTGFIGTPALLPALTKLGMDDLAEKVFLQEDVPGWLYQVSKGATTIWERWDSMAPDGTIYEPDMNSYNHYAYGAVCQWLFESVAGISPSPSAPGFAEVIVDPAPIPSLSPVSAYHDISQGRIEAGWHCDGKKVTYVLTLPEGCIGWFRPGKRHQNPSLNGEPVVEEAVLAPGTHRLVFSLPNS
B3: 1007 (protein, listed as Modestobacter marinus)
chain: MSDPTVTVVRLRTDDDSGLTATANATPRLSWSLAADRSGVLQRGYEVQVAPDPGFADPVSSGEVDSDVVVDHDWPAAPLTSRQVAYWRVRVRTDQGWTAWGEPACVEAALLEDADWTARPVFLAGDRGRDGVGPAPLLRREFELPAEPVSARLYLTALGVHRTTLNGRPVGDELLEPGWTSYRDRLLYATHDVTALLRAGRNVLAGSVGDGWFRGNLGWDRLRDFYGDASALLAQLEVRCADGSTVTVSTDEHWRGGYGAVRAADLYDGCDIDLREEPVGWAEAGFDDAGWEPVGTLPLPAGLSQRALPPVRVLQEIEPQVSELSDGTLAVDAGQNVTGWLRLRVTGPSGARVTVRHAEVLDEKGRLVTTLLRSARATDTVVLAGGTADLEPEFTFHGFRYAEVEVPPGVTVDAVRVAVVASDLRRTGQFSCSNPRVDQLFSNVIWSQRDNFLSIPTDCPQRDERLGWTGDIMAFAPTAAANFDSRAFLDSWLTDVGIEQLPSGGVPMVVPNCLTGEFPSPLPQADGAAGWADAVTVVPAALFRAHGSRDLLRRHVGSMQRWVDYVAGLLAEDGTWSGYLQLGDWLDPNAPPERPFEAVTDRDYVATVFVAHSARLLAATCRELGRGPDADRYAALGDRVAQAAWAKWADLAPTTQTGCALAIVFGSAPDAELPALGDALAGLVRASGGRIGTGFLGTPFVLPALTATGHLAEAYQLLLNEECPGWLYQIRHGATTMWERWDGILADGSVHPGQMADGSTMSSFNHYAYGAVASWLYESVAGLSPAAPGYREVLVAPQPGGGLTRAAASIETEYGPASVGWSTDGATLTVDVTLPPGTTGRFAVPAGWSPQQPVALLGSGQHTLLLTGAGA
B4: 1075 (protein, listed as Asticcacaulis sp.)
chain: MTRLNRRHFLAASGLAATVAPTMSRSKTLAKTALGVTDLRAEQSENLLGTQAREPRLSWRLTGTERGIMQAGYRLRAGSKPGTADLWDSGNIASDACFDIPYKGKPLNAMQRVWWTVEVRDAKGRTATSAPAWFETGLLAPGDWKAQWIVAEDALAEGDRKAGLQWIWSEKALDNRLHAFRLDFDVPANLASSEVLIAGKDWIRGVWANGEQLPTPDQLVPNWGTLVPVPAKLKPGKNSVCVLVQAETTGFFPVDGGAFAALIRLRLSDGTIKRLVSDTNWKVRPLPPEAWTTADFDASGWVRAQKSGADAQNDPRPAEPAMLLRKAFTPAKKVVNARLYATALGAYEARLNGQPVSTAKMAPEISVTKDHIYYQTYDVTKLIRAGDNALGVVMGDGFYASAFGWRLERYGFGPAPRRLLAQLRLDYADGTSEWIVTDDSWRIGQSPIVTSEIYDGEVFDARLKTDGWDKTGFNAARWPAVRLGQAPHTKIVAQTGPLLVPVSKRRGTITQPKPGIYVIDFGQNFAGWARLNVKGTSGHTVTLKFAEYLKADGEVDQANLRMAKCRDIYTLRGDAGGETFEPSFTYHGFRYVQVENFPGVPTPADIEGIVVTSYCRETGRMTFDDPIIQKFWQNSVWSQRSNFFMVPTDCPQRDERMGWMGDIQVFLDAATFNMECDPFIRRYLDEVRASQTAEGAFPIVCPQPESFPEVTTAGWSEAGVILPWTLWRRYGDTAVIDENWVAMTKWMDYLFKYNPDYVWRKERGLDLGDWLSVDAVKPDDETTPRILCATGYWAYCADLMTQMAAATGREAEAAKYREVRAKIGAAFAKEFVDKDGKAGNGSQTSQILALYFNLVPAERRAAAGEILAKEIRGRGMKLSTGFLGTPYLLDVLADTGHLEEVSGLLKQREKPSWGYMPLKGATTMWERWDGDTGDLAMNSYNHYAYGAVCGFMYRRLAGLAPAAPGFRKMTVEPIYLPHVGKVTANYESCLGTMAGAVTGNASGLKTYDLTVPPNAVAEVILPDGAWREGGKALTGHADIRALRRDSGKVRFEVGSGSYRFKI

assay: Experiment 6-1: screening of rhamnosidases for derhamnosylation of saponins in treated bark extract (2%), QS-17 2296 to QS-18 2150 (PAR %); type: biochemical, Quillaja saponaria; conditions: TBE 2%, pH 7.5, 30 degC, 18 h; TIC peak area ratio percent of rhamnosylated starting saponin to derhamnosylated product, LCMS/MS; negative controls 4.876, 5.225

Row | Molecule | QS-17 (PAR %) [%]
1 | B1 | 0.075
2 | B2 | 0.245
3 | B3 | 0.104
4 | B4 | 0.043

assay: Experiment 6-1: screening of rhamnosidases for derhamnosylation of saponins in treated bark extract (2%), desglucosyl-QS-17 2134 to QS-21 1988 (PAR %); type: biochemical, Quillaja saponaria; conditions: TBE 2%, pH 7.5, 30 degC, 18 h; TIC peak area ratio percent, LCMS/MS; negative controls 2.719, 2.158

Row | Molecule | Peak75 (PAR %) [%]
5 | B1 | 0.137
6 | B2 | 0.230
7 | B3 | 0.043
8 | B4 | 0.000

assay: Experiment 6-1: screening of rhamnosidases for derhamnosylation of saponins in treated bark extract (2%), QS-17 2310 to QS-18 2164 (PAR %); type: biochemical, Quillaja saponaria; conditions: TBE 2%, pH 7.5, 30 degC, 18 h; TIC peak area ratio percent, LCMS/MS; negative controls 3.061, 2.429

Row | Molecule | Peak57 (PAR %) [%]
9 | B1 | 0.000
10 | B2 | 0.029
11 | B3 | 0.009
12 | B4 | 0.000

assay: Experiment 6-2: screening of rhamnosidases for derhamnosylation of saponins in treated bark extract (25%), relative % of Left, Middle and Right Peak by UV HPLC; type: biochemical, Quillaja saponaria; conditions: TBE 25%, pH 7.4, 19.5 h, mainly QS-17 family, negative control 24%

Row | Molecule | Left Peak [%]
13 | B1 | 14
14 | B2 | 13
15 | B3 | 8
16 | B4 | 9

same assay, conditions: TBE 25%, pH 7.4, 19.5 h, mainly QS-18 and desglucosyl-QS-17 family, negative control 50%

Row | Molecule | Middle Peak [%]
17 | B1 | 59
18 | B2 | 59
19 | B3 | 62
20 | B4 | 61

same assay, conditions: TBE 25%, pH 7.4, 19.5 h, mainly QS-21 family, negative control 26%

Row | Molecule | Right Peak [%]
21 | B1 | 27
22 | B2 | 28
23 | B3 | 30
24 | B4 | 30

assay: Experiment 6-3: screening of rhamnosidases for derhamnosylation of saponins in crude bark extract (80%), relative % of Left, Middle and Right Peak by UV HPLC; type: biochemical, Quillaja saponaria; conditions: CBE 80%, pH 7.4, 30 degC, 19.5 h, mainly QS-17 family, negative control 27%
Protocol: Selected variants were expressed and lysed as in the method of experiment 6-1.
Crude bark extract (CBE) solution was adjusted to pH 7.4 by addition of NaOH (2M). 20 uL clarified lysate was transferred into fresh 96 well PCR plates. 80 uL CBE solution (pH 7.4) was added to each well of lysate to a final concentration of 80%. Plates were incubated at 30 degC with shaking for 19.5 h.
Quenched with 100 uL MeCN+2% AcOH and shaken at room temperature for 10 mins prior to centrifugation (10 min, 4 degC) to remove particulates. Samples were analysed by UV HPLC using method of Experiment 4-4.
Three key peaks of interest are apparent using this chromatography: Left Peak (retention time approximately 2.30-2.35 min) comprising mainly QS-17 family components; Middle Peak (retention time approximately 2.37-2.42 min) comprising mainly QS-18 family components and desglucosyl-QS-17 family components; and Right Peak (retention time approximately 2.44-2.50 min) comprising mainly QS-21 family components. Peak identity was supported by MS/MS.
Enzyme mediated hydrolysis of the alpha-O-rhamnosylation at the C2 position of the arabinofuranose moiety of QS-17 family components leads to a decrease in Left Peak and an increase in Middle Peak due to formation of QS-18 family components. Enzyme mediated hydrolysis of the alpha-O-rhamnosylation at the C2 position of the arabinofuranose moiety of desglucosyl-QS-17 family components leads to a decrease in Middle Peak and an increase in Right Peak due to formation of QS-21 family components.
The relative percentage of each peak was determined. A decrease in Left Peak and a concomitant increase in Middle Peak and Right Peak is observed for enzymes active under these conditions.

Row | Molecule | Left Peak [%]
25 | B1 | 31
26 | B2 | 26
27 | B3 | 24
28 | B4 | 26

same assay, conditions: CBE 80%, pH 7.4, 30 degC, 19.5 h, mainly QS-18 and desglucosyl-QS-17 family, negative control 48%

Row | Molecule | Middle Peak [%]
29 | B1 | 45
30 | B2 | 48
31 | B3 | 49
32 | B4 | 47

same assay, conditions: CBE 80%, pH 7.4, 30 degC, 19.5 h, mainly QS-21 family, negative control 26%

Row | Molecule | Right Peak [%]
33 | B1 | 24
34 | B2 | 27
35 | B3 | 27
36 | B4 | 27

assay: Experiment 6-1: specificity of rhamnosidases towards other rhamnose residues (C3 saccharide rhamnose, C28 saccharide rhamnose); type: biochemical, Quillaja saponaria; conditions: TBE 2%, pH 7.5, 30 degC, 18 h; LCMS/MS; negative controls 0.18, 0.17

Row | Molecule | ratio PP/QS-21
37 | B1 | 0.19
38 | B2 | 0.19
39 | B3 | 0.19
40 | B4 | 0.18
